{"source": "patent US20230071765A1", "about": "“COMPOSITIONS HAVING THIOREDOXIN ACTIVITY AND RELATED METHODS” (ORPRO THERAPEUTICS, INC., priority 2020, published 2023)", "key": {"[1]": {"system": "primary HBE cells from CF donors homozygous for F508del", "assay": "μOCT of MCT rate and CBF in CF primary HBE cells", "format": "cell-based, human", "text": "Primary human bronchial epithelial (HBE) cells were derived from lung explants from healthy failed donors and CF patients homozygous for F508del CFTR. […]\nOne-micron resolution spectral domain μOCT was used to obtain measurements of mucociliary transport (MCT) rate and ciliary beat frequency (CBF) in HBE monolayers and of MCT rate of sputum ex vivo. This first-in-kind, high-speed (40 frames per second, 512 lines per frame) microscopic reflectance imaging modality enables simultaneous anatomic imaging in cell cultures and intact tissues that readily distinguishes the properties of CF compared to normal epithelia (Liu L, Chu K K, Houser G H, Diephuis B J, Li Y, Wilsterman E J, Shastry S, Dierksen G, Birket S E, Mazur M, et al., 2013, Method for quantitative study of airway functional microanatomy using micro-optical coherence tomography, PLoS One 8(1):e54473; Tuggle K L, Birket S E, Cui X, Hong J, Warren J, Reid L, Chambers A, Ji D, Gamber K, Chu K K, et al., 2014, Characterization of defects in ion transport and tissue development in Cystic Fibrosis Transmembrane Conductance Regulator (CFTR)-knockout rats. […] Images were captured, and MCT rate and CBF calculated, as described in the preceding references."}, "Sprague-Dawley rats": {"system": "Sprague-Dawley rats", "assay": "nebulized aerosol inhalation in rats, inflammatory potential and toxicity", "format": "in vivo, rat", "description": "This example evaluated and compared the in vivo inflammatory potential among three forms of C35S monothiol Trx (oxidized ORP-100, reduced ORP-100, and reduced ORP100S) formulated in the sucrose/EDTA formulation composition described in PCT WO 2006/090127 and delivered to normal rats as nebulized aerosols at doses of […] and 40 mg/kg.\nAll three forms of ORP-100 were lyophilized following reduction with DTT and formulated in sucrose buffer (9% sucrose 1.17 mM EDTA pH 5.2). All test articles were evaluated at low (10 mg/kg) and high (40 mg/kg) target delivered doses. The test articles were administered to Charles River Sprague-Dawley rats via inhalation as an aerosol. The aerosol of each of the test articles was produced by a commercially available vibrating mesh nebulizer whose output was attached to a nose-only exposure system.\nTarget doses were achieved via modulation of the aerosol exposure time while maintaining the aerosol concentration constant. Animals in Low Dose groups received a single dose of test article during a 20 minute exposure to achieve a target delivered dose of 10 mg/kg and deposited dose of 1 mg/kg. Animals in High Dose groups received a single dose of test article during a 75 minute exposure to achieve a target delivered dose of 40 mg/kg and target deposited dose of 4 mg/kg.\nAnimals in each study group were evaluated for potential toxicity by measuring various parameters including: clinical signs, body weight, clinical pathology (BALF cell counts, LDH and albumin measurements), lung tissue cytokines, lung weights, gross pathology, and microscopic pathology of respiratory target tissues. Additionally, three animals in each Low Dose group had lung tissues collected for immunohistochemistry (Alizèe Pathology, Thurmont, M D). Three (3) animals in each Low Dose group were to be euthanized at 1 hour and 4 hours post exposure for blood and tissue collections. Four (4) animals in each High Dose group were euthanized at 4 and 20 hours post exposure for blood and tissue collections."}, "[2]": {"assay": "stability analysis, lyophilized vs solution (DTNB and SEC-HPLC)", "format": "physicochemical", "description": "Prior work, e.g. WO 2006/090127, teaches compositions for maintenance of thioredoxin in the reduced state. Significant experimentation was required to derive compositions able to keep thioredoxin reduced during storage, and these compositions were complex and required saccharide derivatives and EDTA as excipients. […] ORP-100 and ORP100S proteins were reduced with 100 mM DTT and exchanged over a NAP-5 column into volatile 20 mM ammonium acetate buffer at pH 5.5 to remove residual reductant. Half of the material was frozen at −80° C. then lyophilized while the remainder was kept in solution at either 5° C. or 40° C. for various time points (“PH5.5”). Lyophilized protein was reconstituted back into 20 mM ammonium acetate pH 5.5 immediately prior to evaluation at each time point (“Lyophilized”). Stability was assessed by measuring both free SH groups (DTNB chromogenic assay) and the percent monomers (SEC-HPLC).\nFor FIG. 3: PH5.5: ORP-100 or ORP100S protein maintained in liquid formulation of 20 mM ammonium acetate, pH 5.5 for 0, 3, 7, 14, 21, 28, 90, or 180 days. Lyophilized: ORP-100 or ORP100S protein stored in the lyophilized form at 5° C. or 40° C. for the 0, 3, 7, 14, 21, 28, 90, or 180 days and assayed following reconstitution in 20 mM ammonium acetate, pH 5.5. Percent free sulfhydryl (reduction state) at 5° C. Second panel: Percent monomer determined by SEC assay at 5° C. Third panel: Percent free sulfhydryl at 40° C. Fourth panel: Percent monomer determined by SEC assay at 40° C."}, "[3]": {"details": "material purified with removal of the red fraction, 68.4 mg/ml"}}}
{"molecule": "ORP100S: thioredoxin with monothiol active site, Cys35 and non-active Cys 62, 69 and 73 substituted with serine (SEQ ID NO:29) (protein, synthetic peptide motif) MVKQIESKTAFQEALDAAGDKLVVVDFSATWCGPSKMIKPFFHSLSEKYSNVIFLEVDVDDSQDVASESEVKSMPTFQFFKKGQKVGEFSGANKEKLEATINELV", "values": [{"measurement": "CBF", "setting": "[1]; 3 hrs post treatment", "result": "no meaningful differences"}, {"measurement": "MCT rate", "setting": "[1]; 3 hrs post-treatment, ORP100S 1-3 mM, DTT 1.6 mM, PBS 7.30±2.9, mean±SE", "result": "54.73±15.3", "unit": "mm/min"}, {"measurement": "differences in BALF LDH, albumin, cell counts, differential counts and lung tissue cytokines vs. oxidized ORP-100 control groups", "setting": "Sprague-Dawley rats; low and high dose aerosol", "result": "unremarkable"}, {"measurement": "neutrophil influx (sucrose/EDTA formulation effect)", "setting": "Sprague-Dawley rats; sucrose/EDTA formulation, nebulized aerosol", "result": "abrogated neutrophil influx almost completely"}, {"measurement": "adverse test article effects (clinical observations, BALF chemistry, cell count, differential, lung cytokines, macroscopic and microscopic findings)", "setting": "Sprague-Dawley rats; target delivered doses 10 mg/kg and 40 mg/kg, aerosol, 1, 4 or 20 hours post exposure", "result": "no evidence of adverse test article effects"}, {"measurement": "storage stability (free SH, percent monomer)", "setting": "[2]; lyophilized form, six months at 40° C.", "result": "excellent storage stability"}, {"measurement": "monomer stability by SEC-HPLC vs. ORP-100", "setting": "[2]; particularly first week of storage in liquid formulation", "result": "slightly better monomer stability"}, {"measurement": "Endotoxin level (Endosafe PTS)", "setting": "[3]", "result": 0.002, "unit": "EU/mg"}]}
